Assays:
TaGST-10 [1] = biological target: T1, TaGST-10 (Triticum aestivum, UniProt A0A3B5XZG4); experiment: LC-MS/MS of DON-13-GSH formation, […] DON, apparent specific activity; type: biochemical; set-up: gene LOC123049460; N-His6-SUMO-TaGST-10, IMAC and size-exclusion purified
T1 sequence (A0A3B5XZG4 1-234): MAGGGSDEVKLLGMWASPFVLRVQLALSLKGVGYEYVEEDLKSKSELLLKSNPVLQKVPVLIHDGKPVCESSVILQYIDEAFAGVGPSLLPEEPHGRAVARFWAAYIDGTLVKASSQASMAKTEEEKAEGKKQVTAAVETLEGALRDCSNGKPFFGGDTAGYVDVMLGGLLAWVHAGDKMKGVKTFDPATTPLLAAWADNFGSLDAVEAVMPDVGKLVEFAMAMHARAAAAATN

TaGST-10 [2] = biological target: T1, TaGST-10; experiment: co-crystal structure, […] Å; type: binding; set-up: gene LOC123049460; TaGST-10 after TEV removal of the N-His6-MBP tag; dimer in the asymmetric unit
purified protein [3] = substrate: N[C@@H](CCC(=O)N[C@@H](CS)C(=O)NCC(=O)O)C(=O)O; experiment: purified protein; type: biochemical, Triticum aestivum; conditions: G-site in the N-terminal domain; pH 6.5; 20.0 °C
purified protein [4] = substrate: S=C=NCCc1ccccc1; experiment: purified protein; type: biochemical, Triticum aestivum; conditions: GSH; pH 6.5; 20.0 °C
purified protein [5] = substrate: C=C(CC)C(=O)c1ccc(OCC(=O)O)c(Cl)c1Cl; experiment: purified protein; conditions: GSH; pH 6.5; 20.0 °C

CC1=C[C@H]2O[C@@H]3[C@H](O)C[C@](C)([C@@]2(CO)[C@H](O)C1=O)[C@]31CO1 [DON, deoxynivalenol]
LC-MS/MS of DON-13-GSH formation, 5 mM DON, apparent specific activity (TaGST-10 [1]): 6.3 10^−5 ± 0.4 10^−5

CC1=C[C@H]2O[C@@H]3[C@H](O)C[C@](C)([C@]24CO[C@@]1(O)[C@H]4O)[C@]3(O)CSC[C@H](NC(=O)CC[C@H](N)C(=O)O)C(=O)NCC(=O)O (mixture of isomers) [DON-13-GSH]
co-crystal structure, 2.3 Å (TaGST-10 [2]): TaGST-10 crystallized as a dimer in the asymmetric unit and contained a molecule of DON-13-GSH in each active site.

B1: TaGST-10 (Triticum aestivum) (protein)
chain: MAGGGSDEVKLLGMWASPFVLRVQLALSLKGVGYEYVEEDLKSKSELLLKSNPVLQKVPVLIHDGKPVCESSVILQYIDEAFAGVGPSLLPEEPHGRAVARFWAAYIDGTLVKASSQASMAKTEEEKAEGKKQVTAAVETLEGALRDCSNGKPFFGGDTAGYVDVMLGGLLAWVHAGDKMKGVKTFDPATTPLLAAWADNFGSLDAVEAVMPDVGKLVEFAMAMHARAAAAATN
notes: N-His6-MBP-TaGST-10 (full-length fusion)
K0.5 (purified protein [3]): 0.46 ± 0.01 mM
K0.5 (purified protein [4]): 0.041 ± 0.004 mM
kcat (purified protein [4]): 2 s⁻¹
kcat/Km (purified protein [4]): 47000 M⁻¹ s⁻¹
K0.5 (purified protein [5]): 0.023 ± 0.003 mM
kcat (purified protein [5]): 0.13 s⁻¹
kcat/Km (purified protein [5]): 5500 M⁻¹ s⁻¹
